Publication PMC2276513
Non-standard residues stand in square brackets, D forms with d. No end group written: not given here. *: point of attachment. Acm = CC(=O)NC*

Biological target: IGF-I receptor (human (endogenous in HT-29)) (UniProt P08069)
Sequence of UniProt P08069 (P08069 31-1367): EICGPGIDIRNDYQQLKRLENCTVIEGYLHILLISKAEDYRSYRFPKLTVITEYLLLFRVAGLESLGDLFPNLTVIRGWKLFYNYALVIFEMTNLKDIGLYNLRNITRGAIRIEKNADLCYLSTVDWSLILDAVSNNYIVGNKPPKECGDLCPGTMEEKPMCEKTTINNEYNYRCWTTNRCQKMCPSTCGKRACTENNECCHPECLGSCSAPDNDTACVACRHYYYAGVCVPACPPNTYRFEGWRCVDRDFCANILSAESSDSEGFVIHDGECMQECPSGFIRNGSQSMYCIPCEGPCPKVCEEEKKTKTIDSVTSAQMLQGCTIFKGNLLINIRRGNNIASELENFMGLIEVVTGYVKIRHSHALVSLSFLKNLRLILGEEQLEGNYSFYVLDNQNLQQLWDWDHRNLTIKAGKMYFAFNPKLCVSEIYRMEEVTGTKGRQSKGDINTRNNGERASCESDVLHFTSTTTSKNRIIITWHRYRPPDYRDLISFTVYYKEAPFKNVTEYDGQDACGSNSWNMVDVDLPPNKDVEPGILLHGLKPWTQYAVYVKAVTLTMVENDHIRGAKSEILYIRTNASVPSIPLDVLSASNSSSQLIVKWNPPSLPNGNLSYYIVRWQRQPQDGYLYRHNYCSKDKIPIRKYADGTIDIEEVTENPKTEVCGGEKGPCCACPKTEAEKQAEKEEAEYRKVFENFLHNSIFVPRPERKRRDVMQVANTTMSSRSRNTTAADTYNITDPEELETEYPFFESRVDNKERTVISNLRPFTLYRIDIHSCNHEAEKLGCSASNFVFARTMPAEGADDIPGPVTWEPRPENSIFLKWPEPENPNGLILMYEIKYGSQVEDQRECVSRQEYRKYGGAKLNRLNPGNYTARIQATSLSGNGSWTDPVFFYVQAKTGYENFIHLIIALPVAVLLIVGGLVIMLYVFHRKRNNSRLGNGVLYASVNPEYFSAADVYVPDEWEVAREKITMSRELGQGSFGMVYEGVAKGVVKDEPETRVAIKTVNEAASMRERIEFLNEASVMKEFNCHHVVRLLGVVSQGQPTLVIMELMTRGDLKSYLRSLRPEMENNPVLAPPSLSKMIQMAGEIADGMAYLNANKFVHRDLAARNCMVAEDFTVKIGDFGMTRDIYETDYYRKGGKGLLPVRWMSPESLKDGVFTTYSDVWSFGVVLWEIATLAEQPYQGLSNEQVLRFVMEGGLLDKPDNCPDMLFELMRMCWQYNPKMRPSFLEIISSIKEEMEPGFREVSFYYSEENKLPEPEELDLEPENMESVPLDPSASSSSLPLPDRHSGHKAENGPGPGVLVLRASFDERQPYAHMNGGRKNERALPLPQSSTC

proliferation of HT-29 cells (modified Alamar Blue assay), 48 h with 0.001-1 uM M1557 in medium with 10% FBS: percent inhibition: 14 to 15%
B1: IGF-I D domain analogue peptide (M1557) (peptide)
peptide: [dY]C(Acm)[dA][dP][dL][dK][dP][dA][dK][dS][dA]-NH2
modifications: N-terminus assumed
SMILES: CC(=O)NCSC[C@H](NC(=O)[C@H](N)Cc1ccc(O)cc1)C(=O)N[C@H](C)C(=O)N1CCC[C@@H]1C(=O)N[C@H](CC(C)C)C(=O)N[C@H](CCCCN)C(=O)N1CCC[C@@H]1C(=O)N[C@H](C)C(=O)N[C@H](CCCCN)C(=O)N[C@H](CO)C(=O)N[C@H](C)C(N)=O
